Measured values published in patent publication US20260078197A1 (BIOCYTOGEN PHARMACEUTICALS BEIJING, published 2026).
Changes are numbered by the printed parent chain. Names and notes keep the numbering of the source.

T1: Macaca fascicularis (crab-eating macaque) TFR1 expressed on CHO-S cells (Macaca fascicularis (crab-eating …))
T1 construct: CHO-S cells transfected with a vector expressing fasTFR1; also called fasTFR1; CHO-S-fasTFR1 cells
T1 chain: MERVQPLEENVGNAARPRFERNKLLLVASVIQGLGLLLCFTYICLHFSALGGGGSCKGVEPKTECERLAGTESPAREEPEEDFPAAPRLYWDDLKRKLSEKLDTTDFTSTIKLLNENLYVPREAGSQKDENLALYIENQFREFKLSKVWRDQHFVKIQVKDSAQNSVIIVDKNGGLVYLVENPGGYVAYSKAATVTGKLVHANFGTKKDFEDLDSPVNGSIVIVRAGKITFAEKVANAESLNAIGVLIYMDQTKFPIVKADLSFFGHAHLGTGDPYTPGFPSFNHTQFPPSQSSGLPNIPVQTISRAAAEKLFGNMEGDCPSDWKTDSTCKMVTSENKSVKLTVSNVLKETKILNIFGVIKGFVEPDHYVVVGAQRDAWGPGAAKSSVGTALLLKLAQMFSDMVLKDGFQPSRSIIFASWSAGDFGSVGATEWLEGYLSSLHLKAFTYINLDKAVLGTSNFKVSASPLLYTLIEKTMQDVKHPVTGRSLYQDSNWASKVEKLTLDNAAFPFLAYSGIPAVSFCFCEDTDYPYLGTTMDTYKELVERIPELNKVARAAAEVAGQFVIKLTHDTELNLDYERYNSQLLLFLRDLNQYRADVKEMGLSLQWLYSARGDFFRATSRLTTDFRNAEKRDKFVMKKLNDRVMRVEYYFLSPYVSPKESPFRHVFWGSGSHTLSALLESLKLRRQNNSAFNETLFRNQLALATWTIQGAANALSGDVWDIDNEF

T2: His-tagged monkey TFR1 protein (monkey (Macaca fascicularis))
T2 construct: Bought protein; The order of the tag and the receptor part is not known; also called fasTFR1-His; ACROBiosystems Cat #: TFR-C524a; not shown: His tag
T2 chain: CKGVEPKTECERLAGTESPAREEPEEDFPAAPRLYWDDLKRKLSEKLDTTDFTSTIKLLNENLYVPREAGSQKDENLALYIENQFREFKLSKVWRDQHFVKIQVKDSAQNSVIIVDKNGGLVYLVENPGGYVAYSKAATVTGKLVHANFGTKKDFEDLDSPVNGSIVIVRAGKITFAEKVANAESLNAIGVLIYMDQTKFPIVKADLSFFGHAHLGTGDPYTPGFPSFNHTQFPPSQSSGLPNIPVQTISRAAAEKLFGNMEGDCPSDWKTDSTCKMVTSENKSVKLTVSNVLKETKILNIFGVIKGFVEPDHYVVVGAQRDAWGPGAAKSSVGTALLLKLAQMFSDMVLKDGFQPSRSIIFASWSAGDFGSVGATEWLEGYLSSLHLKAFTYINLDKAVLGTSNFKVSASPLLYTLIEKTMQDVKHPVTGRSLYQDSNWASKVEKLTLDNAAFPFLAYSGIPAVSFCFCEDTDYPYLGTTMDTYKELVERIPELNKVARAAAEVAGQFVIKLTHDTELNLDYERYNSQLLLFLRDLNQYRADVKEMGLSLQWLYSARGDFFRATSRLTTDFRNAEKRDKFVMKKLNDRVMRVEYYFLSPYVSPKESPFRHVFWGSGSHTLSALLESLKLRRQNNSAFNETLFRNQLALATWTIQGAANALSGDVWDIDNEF

B1: 23B8 (antibody, V domains shown)
VH: QVTLKESGGGLVKPGGSLRLSCAASGFPFSNAWMNWVRQAPGKGLEWVGHIKSKTDGGTTDYAAPVKGRFTISRDDSKNMVFLQMNSLKTEDTAVYYCTTDRAYCGGDCSHYYYHDLDVWGQGTTVTVSS
notes: Heavy-chain antibody without light chain; also called anti-TFR1 antibody 23B8
B2: 24C9 (antibody, human IgG1, V domains shown)
VH: EVQLVQSGGGVVQPGRSLRLSCAASGFTLSSYGMYWVRQAPGKGREWVAFIRFDESKKYYADSVKGRFTISRDNSKNTLYLQMNSLRAEDTAVYYCARDGEGGYCTNGVCHGLDVWGQGTTVTVSS
notes: Heavy-chain antibody without light chain; also called anti-TFR1 antibody 24C9
B3: 24A1 (antibody, human IgG1, V domains shown)
VH: EVQLVESGGGLVQPGGSLRLTCAASGFTFSSYAMSWVRQAPGKGLERVSEISGSGSSTNYADSVKGRFTISRDNSKNTLYLQMNSLRAEDTAVYYCAKDDSSGWAFNIWDQGTVVTVSS
notes: Heavy-chain antibody without light chain; also called anti-TFR1 antibody 24A1
B4: 24G5 (antibody, human IgG1, V domains shown)
VH: B3 VH with E1Q, V2L, V5Q, Y32F, G53D, S56G, S57N, N59Y
notes: Heavy-chain antibody without light chain; also called anti-TFR1 antibody 24G5
B5: JR141-N (antibody, V domains shown)
VH: EVQLVQSGAEVKKPGESLKISCKGSGYSFTNYWLGWVRQMPGKGLEWMGDIYPGGDYPTYSEKFKVQVTISADKSISTAYLQWSSLKASDTAMYYCARSGNYDEVAYWGQGTLVTVSS
VL: DIVMTQTPLSLSVTPGQPASISCRSSQSLVHSNGNTYLHWYLQKPGQSPQLLIYKVSNRFSGVPDRFSGSGSGTDFTLKISRVEAEDVGVYYCSQSTHVPWTFGQGTKVEIK
notes: also called positive control; JR141 VH and VL on human IgG1 N297A

These binders were tested against T3, His-tagged human TFR1 (transferrin receptor 1) protein (human, UniProt P02786 89-760) (assay: BLI (Octet) binning; hTFR1-His captured on HIS1K; ratio = binding of analyte 2 / binding of analyte 1; competitor (analyte 1, bound first): 24A1).
T3 construct: Bought protein; The order of the tag and the receptor part is not known; also called hTFR1-His; ACROBiosystems Cat #: CD1-H5243; not shown: His tag
T3 sequence (P02786 89-760 limits assumed): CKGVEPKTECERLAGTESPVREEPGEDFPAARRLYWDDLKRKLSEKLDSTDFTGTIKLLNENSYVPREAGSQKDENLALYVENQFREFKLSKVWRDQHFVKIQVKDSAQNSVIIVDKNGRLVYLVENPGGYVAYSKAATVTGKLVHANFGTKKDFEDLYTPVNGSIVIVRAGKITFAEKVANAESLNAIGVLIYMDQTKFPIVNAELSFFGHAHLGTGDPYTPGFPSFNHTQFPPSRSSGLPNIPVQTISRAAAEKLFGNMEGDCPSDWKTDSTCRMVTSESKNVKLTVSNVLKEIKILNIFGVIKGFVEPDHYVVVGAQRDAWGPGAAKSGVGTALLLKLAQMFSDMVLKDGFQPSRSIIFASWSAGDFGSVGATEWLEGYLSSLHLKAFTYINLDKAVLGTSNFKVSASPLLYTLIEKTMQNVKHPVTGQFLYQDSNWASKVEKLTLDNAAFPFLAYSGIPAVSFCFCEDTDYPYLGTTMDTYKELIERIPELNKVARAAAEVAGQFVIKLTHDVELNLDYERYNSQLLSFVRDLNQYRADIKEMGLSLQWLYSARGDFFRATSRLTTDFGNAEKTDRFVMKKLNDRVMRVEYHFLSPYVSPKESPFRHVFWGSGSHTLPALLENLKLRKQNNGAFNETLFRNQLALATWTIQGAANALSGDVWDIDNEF
Experimental: (§1) Relative positions of target protein epitope between a pair of purified anti-TFR1 antibodies were analyzed by Biolayer Interferometry (BLI) using ForteBio Octet system at 30° C. 1×HBS-EP+ buffer (10 mM 4-(2-hydroxyethyl)-1-piperazineethanesulfonic acid (HEPES), 150 mM NaCl, 3 mM ethylenediaminetetraacetic acid (EDTA) and 0.05% P20, pH7.4) diluted from HBS-EP+ buffer (10×) was used as the running buffer throughout the experiment. About 10 μg/mL of hTFR1-His protein was captured by HIS1K (Anti-Penta-HIS) for 200 seconds, and 200 nM of antibody (analyte 1) was injected at a flow rate of 30 μL/min to bind the ligand. Another antibody (analyte 2) was injected under the same conditions to determine whether the binding of different antibodies interfered with each other. The binding time was 300 seconds for each antibody.
(§2) The binding value of each antibody was obtained using Data Analysis HT 12.0. To quantify the interference of one antibody binding to another, a binding ratio was calculated to compare each pair of antibodies. The binding ratio is defined as the binding value of the second antibody (analyte 2), divided by the binding value of the first antibody (analyte 1).

binding ratio	Binder
0.2	B1
0.1	B2
0.1	B3
0	B4
0	B5

Biological target: T1, Macaca fascicularis (crab-eating …)
Test: flow cytometry on CHO-S-fasTFR1 cells; anti-hIgG-Fc Alexa Fluor 647 secondary
Experimental: (§3) CHO-S-hTFR1 cells or CHO-S-fasTFR1 cells were transferred to a 96-well plate at a density of 10⁵ cells/well respectively. Serially diluted sample anti-TFR1 antibodies were added to the 96-well plate, and incubated at 4° C. for 30 minutes. PBS was used as a negative control (NC).

Percentage of Positive Cells [%]	Binder
39.6	B1
50.9	B3
51.2	B4
37.2	B5

Each binder was assayed against T3, His-tagged human TFR1 (transferrin …) (assay: BLI (Octet) binning; hTFR1-His captured on HIS1K; ratio = binding of analyte 2 / binding of analyte 1; competitor (analyte 1, bound first): 24C9).
Experimental: as §1, §2

binding ratio	Binder
1.4	B1
0	B2
0.1	B3
0	B4
1.1	B5

These binders were tested against T3, His-tagged human TFR1 (transferrin …) (assay: BLI (Octet) binning; hTFR1-His captured on HIS1K; ratio = binding of analyte 2 / binding of analyte 1; competitor (analyte 1, bound first): 23B8).
Experimental: as §1, §2

binding ratio	Binder
0.1	B1
0.6	B2
0	B3
0	B4
0.7	B5

The binders below were run against T3, His-tagged human TFR1 (transferrin …) (assay: BLI (Octet) binning; hTFR1-His captured on HIS1K; ratio = binding of analyte 2 / binding of analyte 1; competitor (analyte 1, bound first): 24G5).
Experimental: as §1, §2

binding ratio	Binder
0.3	B1
0.2	B2
0.1	B3
0	B4
0	B5

What follows are binders tested against T3, His-tagged human TFR1 (transferrin …) (assay: SPR, Biacore 8K; antibody captured on Protein A chip, hTFR1-His as analyte; 1:1 Langmuir fit).
Experimental: (§4) Purified anti-TFR1 antibodies was captured on the Protein A chip (Series S Sensor Chip Protein A) for the detection. Purified anti-TFR1 antibodies (1 μg/mL) was loaded at 10 μL/min to bind to hTFR1-His and fasTFR1-His (200 nM). The flow rate was 30 μL/min. The binding and dissociation time were set to 180 seconds and 600 seconds, respectively. The chip was regenerated after the last injection of each titration with a glycine solution (pH 2.0) at […] for 30 seconds.
(§5) As a person of ordinary skill in the art would understand, the same method with appropriate adjustments for parameters (e.g., antibody concentration) was performed for each tested antibody.

Kd [nM]	koff [s⁻¹]	kon [M⁻¹ s⁻¹]	Binder
8.73	0.000132	15100	B1
14.3	0.000383	26800	B2
2.93	7.68e-05	26200	B3
2.05	8.68e-05	42400	B4

These binders were tested against T3, His-tagged human TFR1 (transferrin …) (assay: BLI (Octet) binning; hTFR1-His captured on HIS1K; ratio = binding of analyte 2 / binding of analyte 1; competitor (analyte 1, bound first): JR141-N).
Experimental: as §1, §2

binding ratio	Binder
1.1	B1
0.8	B2
0.3	B3
0.2	B4
0	B5

Biological target: T2, His-tagged monkey TFR1 protein
Test: SPR, Biacore 8K; antibody captured on Protein A chip, fasTFR1-His as analyte; 1:1 Langmuir fit
Experimental: as §4, §5

Kd [nM]	koff [s⁻¹]	kon [M⁻¹ s⁻¹]	Binder
19.5	0.00799	410000	B1
2.32	0.000101	43600	B3
1.39	8.79e-05	63300	B4

These binders were tested against T4, human TFR1 expressed on CHO-S cells (human, UniProt P02786 1-760) (assay: flow cytometry on CHO-S-hTFR1 cells; anti-hIgG-Fc Alexa Fluor 647 secondary).
T4 construct: CHO-S cells transfected with a vector expressing human TFR1; also called hTFR1; CHO-S-hTFR1 cells
T4 sequence (P02786 whole entry): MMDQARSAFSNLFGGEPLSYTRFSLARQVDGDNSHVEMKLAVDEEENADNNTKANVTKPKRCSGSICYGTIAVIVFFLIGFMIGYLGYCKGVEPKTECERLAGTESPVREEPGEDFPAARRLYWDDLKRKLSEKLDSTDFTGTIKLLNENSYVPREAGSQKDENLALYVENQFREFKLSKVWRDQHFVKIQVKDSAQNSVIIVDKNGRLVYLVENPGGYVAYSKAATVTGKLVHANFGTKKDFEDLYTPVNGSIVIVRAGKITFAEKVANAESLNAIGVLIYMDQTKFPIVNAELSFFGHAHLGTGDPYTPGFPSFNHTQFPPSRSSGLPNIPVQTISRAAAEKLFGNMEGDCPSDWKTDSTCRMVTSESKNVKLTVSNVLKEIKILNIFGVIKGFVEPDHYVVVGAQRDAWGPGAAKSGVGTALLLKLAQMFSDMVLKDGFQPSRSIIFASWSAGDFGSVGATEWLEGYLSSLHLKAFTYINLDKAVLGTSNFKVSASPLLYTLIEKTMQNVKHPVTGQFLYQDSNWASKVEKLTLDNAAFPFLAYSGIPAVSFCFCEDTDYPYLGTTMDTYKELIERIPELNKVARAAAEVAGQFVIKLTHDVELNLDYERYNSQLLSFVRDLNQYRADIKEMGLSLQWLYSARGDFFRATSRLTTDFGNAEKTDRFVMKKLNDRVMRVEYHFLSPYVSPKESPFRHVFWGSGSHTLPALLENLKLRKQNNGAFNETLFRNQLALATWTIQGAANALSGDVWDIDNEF
Experimental: as §3

Percentage of Positive Cells [%]	Binder
38.8	B1
45.8	B2
56.4	B3
54.3	B4
45	B5
